Test results published in article PMC7954794, “Protein context shapes the specificity of SH3 domain-mediated interactions in vivo” (Nature Communications, 2021).

B1: YFR004W (protein, UniProt P43588 1-306, looked up)
Ubiquitin carboxyl-terminal …: MERLQRLMMNSKVGSADTGRDDTKETVYISSIALLKMLKHGRAGVPMEVMGLMLGEFVDDYTVNVVDVFAMPQSGTGVSVEAVDDVFQAKMMDMLKQTGRDQMVVGWYHSHPGFGCWLSSVDVNTQKSFEQLNSRAVAVVVDPIQSVKGKVVIDAFRLIDTGALINNLEPRQTTSNTGLLNKANIQALIHGLNRHYYSLNIDYHKTAKETKMLMNLHKEQWQSGLKMYDYEEKEESNLAATKSMVKIAEQYSKRIEEEKELTEEELKTRYVGRQDPKKHLSETADETLENNIVSVLTAGVNSVAIK
B2: YCR009C (protein, UniProt P25343 1-265, looked up)
Reduced viability upon …: MSWEGFKKAINRAGHSVIIKNVDKTIDKEYDMEERRYKVLQRAGEALQKEAKGFLDSLRAVTASQTTIAEVISNLYDDSKYVAGGGYNVGNYYLQCVQDFDSETVKQLDGPLRETVLDPITKFSTYFKEIEEAIKKRDHKKQDFDAAKAKVRRLVDKPAKDASKLPRAEKELSLAKDIFENLNNQLKTELPQLVSLRVPYFDPSFEALIKIQLRFCTDGYTRLAQIQQYLDQQSRDDYANGLLDTKIEELLGQMTSLDICALGIK
B3: YNL106C (protein, UniProt P50942 1-1183, looked up)
Polyphosphatidylinositol …: MKILLSKQQTRKIAIVSETHGLVFRPINSKNSRRSTCAVELVPKAELNGNGFRRLSNHEIYGFIGLIEIEGLMFIATITGKSKVAQPIPNKTVNKIYAVDFFCLNNSKWDFMDIDSSGYPIVTNDGDFAISSPPSISTHSSRSSLRSSSSRSLNAQEQAPKHPCHELRKLLSNGSFYYSTDFDLTCTLQKRGFTEHSLSFDDFDREFMWNSFLMDEIITYRDRLDVTAKELLDQRGFLTTVIRGFAETIFSYINRLKVGLTIISRQSWKRAGTRFNARGIDDDGHVANFVETEMIMYSSQYCYAFTQIRGSLPIFWEQDTSLISPKIQITRSVEATQPTFDEHFIRLFKKYGPVHIINLLSTKSSEIQLSRRYKEQLKNSEKMKIGRDVFLTSFDFHRETSQDGFAAASRIIPKIRNTILDAGYFSYDVKEGRLISEQDGVFRTNCLDCLDRTNLIQQTISLAVFKLFLEDFRLVKPSSFIDDNEFVQKVNALWADNGDQISQIYTGTNALKSSYSRKGKMSFSGALSDATKSVSRMYINNFVDKGKQQNIDTLLGKLPHQQVVELYDPICEYVNERLLESEEKFTTHSNINLFVGTFNVNGNSRRADLSKWLFPIGDKFKPDVVVLGLQEVIELTAGSILNADYTKSSFWETMVTDCLNQYEEKYLLLRVEQMSSLLILFFARSDRAYNIKEVGGSTKKTGFGGITGNKGAVAIRFDYGATSFCFVNTHLSAGASNIDERRNDYNNIYRNITFPRSKTIPHHDSLFWLGDLNYRITLTNDEVRRELRAQKDGYIDRLLQYDQLTQEINEGVVFQGFKEPTLQFRPTYKYDYGTDNYDTSEKARTPSWTDRIIYKGENLHPLAYSDAPLKISDHKPVYAAYRANVKFVDEKEKLNLVEKLYAEYKNTHPEALTTGPDELSHARMEKQKESIPLDATVQSAGIKLIDLDDTSSCVSPLLSGPSPQPSVVGPGGLSNVSPDKSKLNVLPPPPPTSRHNKEPSSKLLSPTKEISIVSVSPRKGESNLPALERHSTPKPLPPVPALSLSKPVSLQKSSSELQHAKETIDNGKIVPRPCPPIRRKSSTAPDEISTSTKNSGVSTTEDPEPAKASTKPEKPPVVKKPHYLSVAANKLNTSQEHSIKVSPSNSKSEEELPCKKKSKPKVPAKNPELEKLSVHPLKPCDPN
B4: YNL307C (protein, UniProt P21965 2-375, looked up)
Protein kinase MCK1: STEEQNGVPLQRGSEFIADDVTSNKSNNTRRMLVKEYRKIGRGAFGTVVQAYLTQDKKNWLGPFAIKKVPAHTEYKSRELQILRIADHPNIVKLQYFFTHLSPQDNKVYQHLAMECLPETLQIEINRYVTNKLEMPLKHIRLYTYQIARGMLYLHGLGVCHRDIKPSNVLVDPETGVLKICDFGSAKKLEHNQPSISYICSRFYRAPELIIGCTQYTTQIDIWGLGCVMGEMLIGKAIFQGQEPLLQLREIAKLLGPPDKRFIFFSNPAYDGPLFSKPLFSGSSQQRFEKYFGHSGPDGIDLLMKILVYEPQQRLSPRRILAHQFFNELRNDDTFLPRGFTEPIKLPNLFDFNDFELQILGEFADKIKPTKVAE
B5: YNL229C (protein, UniProt P23202 2-354, looked up)
Transcriptional regulator URE2: MNNNGNQVSNLSNALRQVNIGNRNSNTTTDQSNINFEFSTGVNNNNNNNSSSNNNNVQNNNSGRNGSQNNDNENNIKNTLEQHRQQQQAFSDMSHVEYSRITKFFQEQPLEGYTLFSHRSAPNGFKVAIVLSELGFHYNTIFLDFNLGEHRAPEFVSVNPNARVPALIDHGMDNLSIWESGAILLHLVNKYYKETGNPLLWSDDLADQSQINAWLFFQTSGHAPMIGQALHFRYFHSQKIASAVERYTDEVRRVYGVVEMALAERREALVMELDTENAAAYSAGTTPMSQSRFFDYPVWLVGDKLTIADLAFVPWNNVVDRIGINIKIEFPEVYKWTKHMMRRPAVIKALRGE

Columns and labels:
[1] = test system: 575 putative partners (preys) of 22 WT SH3-containing proteins; experiment: DHFR-PCA on solid medium, WT and SH3-deleted baits (Fig. 1B); assay type: cell-based, Saccharomyces cerevisiae; parameters: key to Score: 0: SH3-independent; 1: SH3-dependent PPIs; 2: SH3-inhibited PPIs; conditions: for medrep (log2 median colony size normalized to plate background, PCA score): label = prey; for Ratio (SH3-deleted/WT medrep): only significant differences shown, PPIs completely lost have a ratio of 0.1, gained PPIs 2.5
Description: To assess the requirement of SH3 domains for PPIs in vivo, we first measured binary interactions between 22 WT SH3-containing proteins (Supplementary Fig. 1A) as baits and 575 putative partners from their interconnected signaling networks using the dihydrofolate reductase protein–fragment complementation assay (DHFR-PCA) in the budding yeast Saccharomyces cerevisiae. About 33% (202/607) of the PPIs detected were described before, mostly by direct methods (Supplementary Fig. 1B, C)[11]. We repeated the experiments with baits in which the SH3s were individually replaced with a flexible linker by genome editing (SH3 domain deletion/stuffing, Fig. 1A). The stuffer DNA sequence ([…]) codes for a small flexible poly-Gly with Ser peptide ([…]) that is inspired by previous experiments[12],[13]. About a third of the SH3-containing protein interactome is qualitatively or quantitatively SH3-dependent (171 PPIs out of 607, Fig. 1B and Supplementary Fig. 1B, C). We validated the vast majority of the quantitative changes in low-throughput experiments and excluded that this is simply due to changes in protein abundance in most cases (Supplementary Fig. 1D–G). SH3-binding motifs[14] are more frequent in the SH3-dependent PPI partners when compared to sequences from random proteins, SH3-independent PPI partners or PPI partners that are stronger or gained following SH3 deletions (p values = 1.5 × 10^−17, 0.0038 and 2.1 × 10^−08, respectively; Mann–Whitney test, one-tailed, Fig. 1C). The changes we measure are therefore enriched for PPIs that depend on the direct interactions of the domains with the PPI partners.
The complete list of strains, primers, and gRNAs used in this study can be found in Supplementary Tables 1–3. All constructed yeast strains were validated by polymerase chain reaction (PCR) and confirmed by Sanger sequencing of the locus of interest. Bait strains for the DHFR-PCA experiments were constructed as follows. The genes of interest were fused at their genomic 3′ end by replacing the stop codon with a linker ([…]), the DHFR F[1,2] followed by a smaller linker (GGGGS), a 1× FLAG tag ([…]) and the NATMX4 resistance cassette via homologous recombination (all amplified from pAG25-DHFR[1,2]-linker-FLAG). The set of 615 prey strains (DHFR F[3] fusions in the BY4742 background) were retrieved from the Yeast Protein Interactome Collection[43] with the exception of 73 that were reconstructed (Supplementary Tables 1 and 2). Knockout strains were taken from the yeast knockout collection except for ABP1, BEM1, BZZ1, and SLA1, which were reconstructed by replacing the ORFs with the NATMX4 resistance cassette by homologous recombination in the BY4741 background.
Yeast SH3 domain genomic sequences were replaced by CRISPR–Cas9 genome editing. Each SH3 domain (as defined by the SMART database V8.0 except for Ysc84 SH3 (as defined by PROSITE), see Source Data for all SH3 sequences and Supplementary Table 1 for primers used) was specifically targeted by one gRNA[46]. Yeast competent cells were co-transformed with a pCAS plasmid (Addgene plasmid 60847[47]) expressing both the gRNA of interest and Streptococcus pyogenes Cas9[46] and a donor DNA sequence (stuffer) with 60 bp homology arms surrounding the SH3 DNA sequence. The Stuffer DNA was either PCR amplified or digested from a plasmid. The stuffer DNA sequence ([…]) codes for a small flexible linker ([…]) inspired by protein linkers used in structural biology[12],[13]. This type of linker is frequently used for fusing proteins without affecting the structure of the linked proteins.
The overall DHFR-PCA pipeline is based on Tarassov et al.[43] and the procedures have also been published as a visualized protocol. The screens were performed with robotically manipulated pin tools (BM5-SC1, S&P Robotics Inc.). First, the preys were cherry-picked from 96-well plates to omnitrays in a 384 format on YPD + HPH solid media. […]

ABP1 = experiment: DHFR-PCA on solid medium, bait ABP1 (Fig. 1B); assay type: cell-based, Saccharomyces cerevisiae; conditions: bait ABP1, label = prey; for medrep (log2 median colony size normalized to plate background, PCA score): 2-4 replicates
Description: Supplement 41467_2021_21873_MOESM8_ESM.xlsx, sheet "Fig1B" | column: medsize; medrep; Ratio; Score

[2] = bait SLA1-2, DHFR-PCA, Replicates 4 (2 for YCR009C, YDR388W)
[3] = bait SLA1-3, DHFR-PCA, Replicates 4 (2 for YCR009C, YDR388W, YIL033C)

Molecule | medrep (log2 median colony size normalized to plate background, PCA score) [1, 2] | Score ([1]; bait SLA1-2, label = prey) | Ratio (SH3-deleted/WT medrep) ([1]; bait SLA1-2, label = prey) | medrep (log2 median colony size normalized to plate background, PCA score) [1, 3] | Score ([1]; bait SLA1-3, label = prey) | medrep (log2 median colony size normalized to plate background, PCA score) (ABP1) | Ratio (SH3-deleted/WT medrep) (ABP1; only significant differences showed, PPIs completely lost have a ratio of 0.1 and the gained PPIs 2.5) | Ratio (SH3-deleted/WT medrep) ([1]; bait SLA1-3, label = prey)
B1 | 2.485 | 1 | 0.1 | 2.485 | 0 | 3.9898 | 1.738 | 
B2 | 2.15 | 1 | 0.1 | 2.15 | 0 | 4.682 |  | 
B3 | 1.813 | 1 | 0.1 | 1.813 | 1 | 3.9733 |  | 0.1
B4 | 1.966 | 1 | 0.1 | 1.966 | 0 | 1.521 |  | 
B5 | 1.546 | 1 | 0.1 | 1.546 | 0 | 1.889 |  | 
